Paper PMC5152705

Columns and labels:
[1] = target: recombinant fragment of human SP-A (rfhSP-A) (human); test: SEC; gel permeation chromatography, Superdex 200 HR 10/30, TBS with 5 mM EDTA, pH 7.4; rfhSP-A purified by mannan affinity chromatography; also after freeze/thawing
[2] = target: recombinant fragment of human SP-A (rfhSP-A) (human); test: SEC; gel permeation chromatography, Superdex 200 HR 10/30, TBS with 5 mM EDTA, pH 7.4; rfhSP-A after IMAC and removal of the NT tag; quaternary structure estimated by comparison with molecular weight standards

## recombinant fragment of human SP-A (rfhSP-A) (domain or fragment)
[1]
  stoichiometry N: 3
[2]
  percent dimeric: 15%
  percent monomeric: 9%
  percent trimeric: 72%
  stoichiometry N: 3
